The source of these data is publication PMC6971430, “Manipulation of the dually thermoresponsive behavior of peptide‐based vesicles through modification of collagen‐like peptide domains” (Bioengineering & Translational Medicine, 2019).

Data set [1] concerns the molecule itself. Description: circular dichroism spectroscopy; ELP-CLP conjugates, wavelength scans at 0.1 mM and melting scans at 0.35 mM in HPLC grade water (pH 6.5 at 4°C), 0.2 cm cuvette; monomers to triple helix.
Data set [2] concerns the molecule itself. Description: circular dichroism spectroscopy; free CLP peptides, 0.35 mM in HPLC grade water (pH 6.5 at 4°C), 0.2 cm cuvette; wavelength scans at 4 and 80°C and melting scans; monomers to triple helix. For orientation: Circular dichroism is the unequal absorption of left and right circularly polarised light.

Non-standard residues stand in square brackets, D forms with d. No end group written: not given here. *: point of attachment. Butanoyl(4-N3) = [N-]=[N+]=NCCCC(=O)*; Hyp = O=C(O)[C@@H]1C[C@@H](O)CN1; Pra = C#CC[C@H](N)C(=O)O

B1: (VPGFG)6-(GPO)3GFOGER(GPO)3GG (peptide)
chain: H-VPGFGVPGFGVPGFGVPGFGVPGFGVPGFG[Pra]GP[Hyp]GP[Hyp]GP[Hyp]GF[Hyp]GERGP[Hyp]GP[Hyp]GP[Hyp]GG
modifications: triazole (positions not given here); not fully specified (residue 31, bridges); also: no peptide bond between residues 31 and 32, the two parts are joined by azide-alkyne cycloaddition
notes: elastin-like peptide NH2-(VPGFG)6G', written out here; the last G stands for G' (propargylglycine); collagen-like peptide (GPO)3GFOGER(GPO)3GG as in m2; the printed O (hydroxyproline) is written as P; Two synthetic peptides joined through a triazole, written as one chain; Reaction details are in Supporting Information Section 1.2; also called F6-GFOGER; ELP-CLP conjugate; source: synthetic …
As to B1, the stoichiometry N (in general, the number of molecules, sites or subunits per partner or assembly) in data set [1] is 3.

B2: N3-(GPO)3GFOGER(GPO)3GG (peptide)
peptide: {Butanoyl(4-N3)}-GP[Hyp]GP[Hyp]GP[Hyp]GF[Hyp]GERGP[Hyp]GP[Hyp]GP[Hyp]GG
notes: collagen-like peptide, printed in short form as N3-(GPO)3GFOGER(GPO)3GG and written out here; Forms a homotrimeric triple helix; details are in Supporting Information Section 1.1; also called CLP; source: synthetic peptide (Fmoc solid phase synthesis), purified by RP-HPLC
For B2, the “stoichiometry N” value in data set [2] stood at 3.
